In this assay the target is T1, Antigen SdW1a (free peptide) (Homo sapiens).
T1 construct: Synthetic peptide derived from DBY/DEAD; A KLH-conjugated form (SdW1b) was also used in screening; also called the antigen; 22-mer peptide
T1 peptide: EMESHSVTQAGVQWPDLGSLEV
Description: supernatant ELISA on the antigen, hybridoma supernatant. As to the method:
Screening: Hybridoma cells were grown for 10 days at which point the number of positive hybridoma colonies was determined and after a further 3 days' incubation an aliquot of antibody supernatant was taken for screening. The supernatant was assayed for reactivity to the antigens SdW1a (free peptide—SEQ ID NO. 347) and SdW1b (KLH-peptide), firstly by antigen microarray using an IgG-specific secondary antibody, followed by supernatant ELISA to confirm any positive antibody-producing clones.
For orientation: In an ELISA, binding on a coated surface is turned into a signal by an enzyme label.

B1: monoclonal antibody SdW1 RE5.B7.F9b (antibody, mouse IgG2a, V domains shown)
VH: EVKVEESGGGLVQPGGSMKISCVASGFTFKNYWMNWVRQSPEKGLEWVAEIRSKSNNNEKHYAESVKGRFTISRDDFKSSVYLQMNNLRTEDTGIYYCTGGTFDYWGQGTTLTVSS
VL: DVVVTQTPLSLPVSLGDQASISCRSSHSLVHSDGNTYLHWYLQKPGQSPKLLIYKVSNRFSGVPDRFSGSGSGTDFTLKISRVEAEDLGVYFCSQTTHVPPYTFGGGTQLEIK
notes: Tested as hybridoma culture supernatant; also called clone RE5; RE5 antibody
For the molecule B1, the binding result was “binds”.

Source of the values: patent US20230133281A1 (CHROMOXYION, published 2023).
